System: human airway epithelia
Test: Endotoxin responsiveness of primary human airway epithelia (HBD-2 mRNA real time PCR, NF-κB-luciferase)
Assay type: cell-based
Conditions: N. meningitidis LOS-sCD14 5 ng LOS/ml, 24 hr, HBD-2 real time PCR
Description: FIG. 6 depicts endotoxin responsiveness of well-differentiated primary cultures of human airway epithelia. Polarized epithelia were treated with NTHi LOS (100 ng/ml), sCD14 (100 ng/ml) and LBP (250 ng/ml) by apical application in a 50 μl volume. Twenty-four hours later, epithelia were harvested and analyzed for HBD-2 mRNA expression by real time PCR. As depicted in FIG. 6A, apical stimulation of airway epithelia with NTHi LOS induced little change in HBD-2 MRNA expression (2 epithelia/trial, n=3 different donors, * indicates p<0.05). In contrast, IL-1β markedly induces HBD-2 mRNA. FIG. 6B depicts the polarity of epithelial responses to IL-1β and NTHi LOS. […]
FIG. 9 depicts the effects of MD-2 complementation on endotoxin responsiveness in human airway epithelia. […] Fold increase in HBD-2 mRNA expression were quantified by real time PCR. […] NF-κB-luciferase activity was measured 24 hr following endotoxin treatment (n=5 epithelia/condition, * indicates p<0.05). […] 24 hr after endotoxin treatment, HBD-2 expression was quantified by real time PCR. […]
Well differentiated human airway epithelia were treated with N. meningitidis LOS-sCD14 (5 ng LOS/ml), with or without the addition of cell culture supernatants containing rMD-2. […] HBD-2 expression was quantified by real time PCR. […]
Real-time PCR was employed to detect human β-defensin-2 and MD-2 and to quantify changes in expression. […]

B1: wt MD-2: soluble polyhistidine-tagged recombinant wild-type MD-2 in conditioned insect cell culture medium (protein)
chain: QKQYWVCNSSDASISYTYCDKMQYPISINVNPCIELKRSKGLLHIFYIPRRDLKQLYFNLYITVNTMNLPKRKEVICRGSDDDYSFCRALKGETVNTTISFSFKGIKFSKGKYKCVVEAISGSPEEMLFCLEFVILHQPNSNHHHHHH
In the case of B1, the “increase of response of human airway epithelial cultures to LOS-sCD14” value is reported as no less than 100 fold.

Source: US7164008B2, “Isolated complexes of endotoxin and MD-2” (priority 2003, dated 2007)
